Laboratory results taken from publication PMC3597591.

Molecular target: 14-3-3η (UniProt P68511)
Assay: GST pull-down from cell lysate
Conditions: reference: lysate with phosphatase inhibitors (PhosStop); sites S2845

Substance: Bassoon Bsn28, 2715-3013 (from UniProt O88778) lysate treated with alkaline phosphatase
- binding against the reference: weaker
